Measurements reported in publication PMC10511321.

Key:
[1] = target: SARS-CoV-2 Omicron BA.2.75.2 RBD, construct used for SPR (SARS-CoV-2) (UniProt P0DTC2); assay: SPR
[2] = target: SARS-CoV-2 Omicron BQ.1.1 S glycoprotein, cell-surface expressed (Δ19) (SARS-CoV-2) (UniProt P0DTC2)
[3] = target: SARS-CoV-2 Omicron BN.1 S glycoprotein, cell-surface expressed (Δ19) (SARS-CoV-2) (UniProt P0DTC2)
[4] = target: SARS-CoV-2 Omicron XBB.1 S glycoprotein, cell-surface expressed (Δ19) (SARS-CoV-2) (UniProt P0DTC2)

Row | Substance | Kd [1] [pM] | koff [1] [s⁻¹] | kon [1] [M⁻¹ s⁻¹] | neutralization of S VSV pseudovirus, fold reduction in potency relative to Wu [2] [fold] | neutralization of S VSV pseudovirus, fold reduction in potency relative to Wu [3] [fold] | neutralization of S VSV pseudovirus, fold reduction in potency relative to Wu [4] [fold]
1 | S309 Fab (fragment antigen-binding region of the S309 antibody, the parent antibody for sotrovimab), used for SPR | 860 | 2.8e-05 | 25500 | – | – | –
2 | sotrovimab immunoglobulin G (IgG) (antibody) | – | – | – | 94 | 778 | 6.5
